Results from the supplement of paper PMC5998384.

Tests used:
HeLa Kyoto [1] = assay: solubility change mitosis vs G1/S (difference of NP-40 vs SDS log2 ratios) (log2 ratio difference); higher = more soluble in mitosis
HeLa Kyoto [2] = assay: solubility in G1/S (NP-40 vs SDS abundance) (log2 ratio); higher = more soluble; settings: cell cycle stage: G1/S
HeLa Kyoto [3] = assay: melting temperature (median over replicates), in situ; higher = more thermally stable
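Throughout, for melting temperature (median over replicates), in situ: HeLa Kyoto cells synchronized by double thymidine or nocodazole block, proteins quantified by TMT10plex mass spectrometry, three independent biological replicates.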
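Throughout, for solubility change mitosis vs G1/S (difference of NP-40 vs SDS log2 ratios): synchronized HeLa Kyoto cells (double thymidine block for G1/S, nocodazole release for mitosis), protein amounts in NP-40 versus SDS lysates quantified by mass spectrometry, three biological replicates.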
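Throughout, for solubility in G1/S (NP-40 vs SDS abundance): HeLa Kyoto cells arrested at G1/S by double thymidine block, proteins quantified by TMT10plex mass spectrometry in mild NP-40 versus SDS extracts, three biological replicates.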

MARK1, sequence (chain, as listed by the source): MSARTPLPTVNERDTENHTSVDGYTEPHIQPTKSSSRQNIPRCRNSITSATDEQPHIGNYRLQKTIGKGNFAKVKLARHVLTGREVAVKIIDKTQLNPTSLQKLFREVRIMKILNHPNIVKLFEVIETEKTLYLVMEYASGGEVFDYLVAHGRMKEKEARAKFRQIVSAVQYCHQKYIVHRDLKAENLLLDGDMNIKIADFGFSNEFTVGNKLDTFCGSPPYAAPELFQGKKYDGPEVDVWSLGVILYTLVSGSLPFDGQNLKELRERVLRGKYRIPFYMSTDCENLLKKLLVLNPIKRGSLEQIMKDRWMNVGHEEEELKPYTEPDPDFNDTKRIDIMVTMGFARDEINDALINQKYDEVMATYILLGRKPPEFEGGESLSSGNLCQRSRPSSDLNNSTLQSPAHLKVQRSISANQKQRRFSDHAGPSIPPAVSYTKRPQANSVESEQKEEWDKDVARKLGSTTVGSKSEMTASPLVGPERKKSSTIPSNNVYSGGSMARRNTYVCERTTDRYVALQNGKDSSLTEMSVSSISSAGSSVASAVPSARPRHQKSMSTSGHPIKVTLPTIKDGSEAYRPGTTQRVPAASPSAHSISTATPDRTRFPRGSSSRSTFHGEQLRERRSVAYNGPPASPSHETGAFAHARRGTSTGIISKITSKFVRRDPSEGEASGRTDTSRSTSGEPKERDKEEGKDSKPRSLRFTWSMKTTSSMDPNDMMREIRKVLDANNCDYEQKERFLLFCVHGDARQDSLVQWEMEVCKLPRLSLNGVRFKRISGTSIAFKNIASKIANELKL

Substance | solubility change mitosis (log2) (HeLa Kyoto [1]) | solubility in G1/S (log2) (HeLa Kyoto [2]) | melting temperature (HeLa Kyoto [3]; cell cycle stage: G1/S) | melting temperature (HeLa Kyoto [3]; cell cycle stage: mitosis)
MAGAGGGGCPAGGNDFQWCFSQVKGAIDEDVAEADIISTVEFNYSGDLLATGDKGGRVVIFQREQENKSRPHSRGEYNVYSTFQSHEPEFDYLKSLEIEEKINKIRWLPQQNAAHFLLSTNDKTIKLWKISERDKRAEGYNLKDEDGRLRDPFRITALRVPILKPMDLMVEASPRRIFANAHTYHINSISVNSDHETYLSADDLRINLWHLEITDRSFNIVDIKPANMEELTEVITAAEFHPHQCNVFVYSSSKGTIRLCDMRSSALCDRHSKFFEEPEDPSSRSFFSEIISSISDVKFSHSGRYMMTRDYLSVKVWDLNMESRPVETHQVHEYLRSKLCSLYENDCIFDKFECCWNGSDSAIMTGSYNNFFRMFDRDTRRDVTLEASRESSKPRASLKPRKVCTGGKRRKDEISVDSLDFNKKILHTAWHPVDNVIAVAATNNLYIFQDKIN [PPP2R2D] | -0.168 | -0.162 | 53.1 °C | 
MAGIPGLLFLLFFLLCAVGQVSPYSAPWKPTWPAYRLPVVLPQSTLNLAKPDFGAEAKLEVSSSCGPQCHKGTPLPTYEEAKQYLSYETLYANGSRTETQVGIYILSSSGDGAQHRDSGSSGKSRRKRQIYGYDSRFSIFGKDFLLNYPFSTSVKLSTGCTGTLVAEKHVLTAAHCIHDGKTYVKGTQKLRVGFLKPKFKDGGRGANDSTSAMPEQMKFQWIRVKRTHVPKGWIKGNANDIGMDYDYALLELKKPHKRKFMKIGVSPPAKQLPGGRIHFSGYDNDRPGNLVYRFCDVKDETYDLLYQQCDAQPGASGSGVYVRMWKRQQQKWERKIIGIFSGHQWVDMNGSPQDFNVAVRITPLKYAQICYWIKGNYLDCREG [PRSS23] | 0.203 | -0.403 | 53.2 °C | 53.6 °C
MAGPESDAQYQFTGIKKYFNSYTLTGRMNCVLATYGSIALIVLYFKLRSKKTPAVKAT [USMG5] | -0.0955 | -1.21 | 55 °C | 52.6 °C
MALAGCPDSFLHHPYYQDKVEQTPRSQQDPAGPGLPAQSDRLANHQEDDVDLEALVNDMNASLESLYSACSMQSDTVPLLQNGQHARSQPRASGPPRSIQPQVSPRQRVQRSQPVHILAVRRLQEEDQQFRTSSLPAIPNPFPELCGPGSPPVLTPGSLPPSQAAAKQDVKVFSEDGTSKVVEILADMTARDLCQLLVYKSHCVDDNSWTLVEHHPHLGLERCLEDHELVVQVESTMASESKFLFRKNYAKYEFFKNPMNFFPEQMVTWCQQSNGSQTQLLQNFLNSSSCPEIQGFLHVKELGKKSWKKLYVCLRRSGLYCSTKGTSKEPRHLQLLADLEDSNIFSLIAGRKQYNAPTDHGLCIKPNKVRNETKELRLLCAEDEQTRTCWMTAFRLLKYGMLLYQNYRIPQQRKALLSPFSTPVRSVSENSLVAMDFSGQTGRVIENPAEAQSAALEEGHAWRKRSTRMNILGSQSPLHPSTLSTVIHRTQHWFHGRISREESHRIIKQQGLVDGLFLLRDSQSNPKAFVLTLCHHQKIKNFQILPCEDDGQTFFSLDDGNTKFSDLIQLVDFYQLNKGVLPCKLKHHCIRVAL [GRB10] | -0.231 | 0.159 | 48.1 °C | 49.1 °C
MAPERLRSRALSAFKLRGLLLRGEAIKYLTEALQSISELELEDKLEKIINAVEKQPLSSNMIERSVVEAAVQECSQSVDETIEHVFNIIGAFDIPRFVYNSERKKFLPLLMTNHPAPNLFGTPRDKAEMFRERYTILHQRTHRHELFTPPVIGSHPDESGSKFQLKTIETLLGSTTKIGDAIVLGMITQLKEGKFFLEDPTGTVQLDLSKAQFHSGLYTEACFVLAEGWFEDQVFHVNAFGFPPTEPSSTTRAYYGNINFFGGPSNTSVKTSAKLKQLEEENKDAMFVFLSDVWLDQVEVLEKLRIMFAGYSPAPPTCFILCGNFSSAPYGKNQVQALKDSLKTLADIICEYPDIHQSSRFVFVPGPEDPGFGSILPRPPLAESITNEFRQRVPFSVFTTNPCRIQYCTQEITVFREDLVNKMCRNCVRFPSSNLAIPNHFVKTILSQGHLTPLPLYVCPVYWAYDYALRVYPVPDLLVIADKYDPFTTTNTECLCINPGSFPRSGFSFKVFYPSNKTVEDSKLQGF [POLE2] | -0.129 | 0.148 | 50 °C | 49.6 °C
MAQEEEDVRDYNLTEEQKAIKAKYPPVNRKYEYLDHTADVQLHAWGDTLEEAFEQCAMAMFGYMTDTGTVEPLQTVEVETQGDDLQSLLFHFLDEWLYKFSADEFFIPREVKVLSIDQRNFKLRSIGWGEEFSLSKHPQGTEVKAITYSAMQVYNEENPEVFVIIDI [ZBTB8OS] | 0.0908 | 0.153 | 52.6 °C | 53.1 °C
MAQGWAGFSEEELRRLKQTKDPFEPQRRLPAKKSRQQLQREKALVEQSQKLGLQDGSTSLLPEQLLSAPKQRVNVQKPPFSSPTLPSHFTLTSPVGDGQPQGIESQPKELGLENSHDGHNNVEILPPKPDCKLEKKKVELQEKSRWEVLQQEQRLMEEKNKRKKALLAKAIAERSKRTQAETMKLKRIQKELQALDDMVSADIGILRNRIDQASLDYSYARKRFDRAEAEYIAAKLDIQRKTEIKEQLTEHLCTIIQQNELRKAKKLEELMQQLDVEADEETLELEVEVERLLHEQEVESRRPVVRLERPFQPAEESVTLEFAKENRKCQEQAVSPKVDDQCGNSSSIPFLSPNCPNQEGNDISAALAT [GORAB] | 0.118 | 0.431 |  | 50.9 °C
MAQQANVGELLAMLDSPMLGVRDDVTAVFKENLNSDRGPMLVNTLVDYYLETSSQPALHILTTLQEPHDKHLLDRINEYVGKAATRLSILSLLGHVIRLQPSWKHKLSQAPLLPSLLKCLKMDTDVVVLTTGVLVLITMLPMIPQSGKQHLLDFFDIFGRLSSWCLKKPGHVAEVYLVHLHASVYALFHRLYGMYPCNFVSFLRSHYSMKENLETFEEVVKPMMEHVRIHPELVTGSKDHELDPRRWKRLETHDVVIECAKISLDPTEASYEDGYSVSHQISARFPHRSADVTTSPYADTQNSYGCATSTPYSTSRLMLLNMPGQLPQTLSSPSTRLITEPPQATLWSPSMVCGMTTPPTSPGNVPPDLSHPYSKVFGTTAGGKGTPLGTPATSPPPAPLCHSDDYVHISLPQATVTPPRKEERMDSARPCLHRQHHLLNDRGSEEPPGSKGSVTLSDLPGFLGDLASEEDSIEKDKEEAAISRELSEITTAEAEPVVPRGGFDSPFYRDSLPGSQRKTHSAASSSQGASVNPEPLHSSLDKLGPDTPKQAFTPIDLPCGSADESPAGDRECQTSLETSIFTPSPCKIPPPTRVGFGSGQPPPYDHLFEVALPKTAHHFVIRKTEELLKKAKGNTEEDGVPSTSPMEVLDRLIQQGADAHSKELNKLPLPSKSVDWTHFGGSPPSDEIRTLRDQLLLLHNQLLYERFKRQQHALRNRRLLRKVIKAAALEEHNAAMKDQLKLQEKDIQMWKVSLQKEQARYNQLQEQRDTMVTKLHSQIRQLQHDREEFYNQSQELQTKLEDCRNMIAELRIELKKANNKVCHTELLLSQVSQKLSNSESVQQQMEFLNRQLLVLGEVNELYLEQLQNKHSDTTKEVEMMKAAYRKELEKNRSHVLQQTQRLDTSQKRILELESHLAKKDHLLLEQKKYLEDVKLQARGQLQAAESRYEAQKRITQVFELEILDLYGRLEKDGLLKKLEEEKAEAAEAAEERLDCCNDGCSDSMVGHNEEASGHNGETKTPRPSSARGSSGSRGGGGSSSSSSELSTPEKPPHQRAGPFSSRWETTMGEASASIPTTVGSLPSSKSFLGMKARELFRNKSESQCDEDGMTSSLSESLKTELGKDLGVEAKIPLNLDGPHPSPPTPDSVGQLHIMDYNETHHEHS [TSC1] | -0.187 | 0.0426 | 50.2 °C | 50.7 °C
MAQVLHVPAPFPGTPGPASPPAFPAKDPDPPYSVETPYGYRLDLDFLKYVDDIEKGHTLRRVAVQRRPRLSSLPRGPGSWWTSTESLCSNASGDSRHSAYSYCGRGFYPQYGALETRGGFNPRVERTLLDARRRLEDQAATPTGLGSLTPSAAGSTASLVGVGLPPPTPRSSGLSTPVPPSAGHLAHVREQMAGALRKLRQLEEQVKLIPVLQVKLSVLQEEKRQLTVQLKSQKFLGHPTAGRGRSELCLDLPDPPEDPVALETRSVGTWVRERDLGMPDGEAALAAKVAVLETQLKKALQELQAAQARQADPQPQAWPPPDSPVRVDTVRVVEGPREVEVVASTAAGAPAQRAQSLEPYGTGLRALAMPGRPESPPVFRSQEVVETMCPVPAAATSNVHMVKKISITERSCDGAAGLPEVPAESSSSPPGSEVASLTQPEKSTGRVPTQEPTHREPTRQAASQESEEAGGTGGPPAGVRSIMKRKEEVADPTAHRRSLQFVGVNGGYESSSEDSSTAENISDNDSTENEAPEPRERVPSVAEAPQLRPAGTAAAKTSRQECQLSRESQHIPTAEGASGSNTEEEIRMELSPDLISACLALEKYLDNPNALTERELKVAYTTVLQEWLRLACRSDAHPELVRRHLVTFRAMSARLLDYVVNIADSNGNTALHYSVSHANFPVVQQLLDSGVCKVDKQNRAGYSPIMLTALATLKTQDDIETVLQLFRLGNINAKASQAGQTALMLAVSHGRVDVVKALLACEADVNVQDDDGSTALMCACEHGHKEIAGLLLAVPSCDISLTDRDGSTALMVALDAGQSEIASMLYSRMNIKCSFAPMSDDESPTSSSAEE [KANK2] | -0.0916 | -0.0486 | 46.7 °C | 
MARGQQKIQSQQKNAKKQAGQKKKQGHDQKAAAKAALIYTCTVCRTQMPDPKTFKQHFESKHPKTPLPPELADVQA [ZNF706] | 0.171 | -0.28 | 57.5 °C | 54.1 °C
MARK1 | -0.0417 | -0.155 |  | 49 °C
MASKGPSASASPENSSAGGPSGSSNGAGESGGQDSTFECNICLDTAKDAVISLCGHLFCWPCLHQWLETRPNRQVCPVCKAGISRDKVIPLYGRGSTGQQDPREKTPPRPQGQRPEPENRGGFQGFGFGDGGFQMSFGIGAFPFGIFATAFNINDGRPPPAVPGTPQYVDEQFLSRLFLFVALVIMFWLLIA [RNF185] | -0.146 | 0.352 | 53.4 °C | 
MASKLLRAVILGPPGSGKGTVCQRIAQNFGLQHLSSGHFLRENIKASTEVGEMAKQYIEKSLLVPDHVITRLMMSELENRRGQHWLLDGFPRTLGQAEALDKICEVDLVISLNIPFETLKDRLSRRWIHPPSGRVYNLDFNPPHVHGIDDVTGEPLVQQEDDKPEAVAARLRQYKDVAKPVIELYKSRGVLHQFSGTETNKIWPYVYTLFSNKITPIQSKEAY [AK4] | 0.0928 | 0.384 |  | 51.3 °C
MASQNRDPAATSVAAARKGAEPSGGAARGPVGKRLQQELMTLMMSGDKGISAFPESDNLFKWVGTIHGAAGTVYEDLRYKLSLEFPSGYPYNAPTVKFLTPCYHPNVDTQGNICLDILKEKWSALYDVRTILLSIQSLLGEPNIDSPLNTHAAELWKNPTAFKKYLQETYSKQVTSQEP [UBE2C] | 0.955 | -0.443 |  | 49.9 °C
